# According to patent US20170190753A1 (LABORATOIRE FRANCAIS DU FRACTIONNEMENT ET DES …, published 2017):
# B1: pCEP4-1NT9-19CT20 (other)
# chain: EDCNELPPRRNTEILTGSWSDQTYPEGTQAIYKCRPGYRSLGNVIMVCRKGEWVALNPLRKCQKRPCGHPGDTPFGTFTLTGGNVFEYGVKAVYTCNEGYQLLGEINYRECDTDGWTNDIPICEVVKCLPVTAPENGKIVSSAMEPDREYHFGQAVRFVCNSGYKIEGDEEMHCSDDGFWSKEKPKCVEISCKSPDVINGSPISQKIIYKENERFQYKCNMGYEYSERGDAVCTESGWRPLPSCEEKSCDNPYIPNGDYSPLRIKHRTGDEITYQCRNGFYPATRGNTAKCTSTGWIPAPRCTLKPCDYPDIKHGGLYHENMRRPYFPVAVGKYYSYYCDEHFETPSGSYWDHIHCTQDGWSPAVPCLRKCYFPYLENGYNQNYGRKFVQGKSIDVACHPGYALPKAQTTVTCMENGWSPTPRCIRVKTCSKSSIDIENGFISESQYTYALKEKAKYQCKLGYVTADGETSGSITCGKDGWSAQPTCIKSCDIPVFMNARTKNDFTWFKLNDTLDYECHDGYESNTGSTTGSIVCGYNGWSDLPICYEREGASGCGPPPPIDNGDITSFPLSVYAPASSVEYQCQNLYQLEGNKRITCRNGQWSEPPKCLHPCVISREIMENYNIALRWTAKQKLYSRTGESVEFVCKRGYRLSSRSHTLRTTCWDGKLEYPTCAKRGGSGHHHHHH
# B2: pCEP4-1NT4-15CT20 (other)
# chain: EDCNELPPRRNTEILTGSWSDQTYPEGTQAIYKCRPGYRSLGNVIMVCRKGEWVALNPLRKCQKRPCGHPGDTPFGTFTLTGGNVFEYGVKAVYTCNEGYQLLGEINYRECDTDGWTNDIPICEVVKCLPVTAPENGKIVSSAMEPDREYHFGQAVRFVCNSGYKIEGDEEMHCSDDGFWSKEKPKCVEISCKSPDVINGSPISQKIIYKENERFQYKCNMGYEYSERGDAVCTESGWRPLPSCEEKSGASGCSQPPQIEHGTINSSRSSQESYAHGTKLSYTCEGGFRISEENETTCYMGKWSSPPQCEGLPCKSPPEISHGVVAHMSDSYQYGEEVTYKCFEGFGIDGPAIAKCLGEKWSHPPSCIKTDCLSLPSFENAIPMGEKKDVYKAGEQVTYTCATYYKMDGASNVTCINSRWTGRPTCRDTSCVNPPTVQNAYIVSRQMSKYPSGERVRYQCRSPYEMFGDEEVMCLNGNWTEPPQCKDSTGKCGPPPPIDNGDITSFPLSVYAPASSVEYQCQNLYQLEGNKRITCRNGQWSEPPKCLHPCVISREIMENYNIALRWTAKQKLYSRTGESVEFVCKRGYRLSSRSHTLRTTCWDGKLEYPTCAKRGGSGHHHHHH
# B3: pCEP4-1NT4-8CT20 (other)
# chain: EDCNELPPRRNTEILTGSWSDQTYPEGTQAIYKCRPGYRSLGNVIMVCRKGEWVALNPLRKCQKRPCGHPGDTPFGTFTLTGGNVFEYGVKAVYTCNEGYQLLGEINYRECDTDGWTNDIPICEVVKCLPVTAPENGKIVSSAMEPDREYHFGQAVRFVCNSGYKIEGDEEMHCSDDGFWSKEKPKCVEISCKSPDVINGSPISQKIIYKENERFQYKCNMGYEYSERGDAVCTESGWRPLPSCEEKSGASGCSKSSIDIENGFISESQYTYALKEKAKYQCKLGYVTADGETSGSITCGKDGWSAQPTCIKSCDIPVFMNARTKNDFTWFKLNDTLDYECHDGYESNTGSTTGSIVCGYNGWSDLPICYERECELPKIDVHLVPDRKKDQYKVGEVLKFSCKPGFTIVGPNSVQCYHFGLSPDLPICKEQVQSCGPPPELLNGNVKEKTKEEYGHSEVVEYYCNPRFLMKGPNKIQCVDGEWTTLPVCIVEESTCGDIPELEHGWAQLSSPPYYYGDSVEFNCSESFTMIGHRSITCIHGVWTQLPQCVAIDKLKKCKSSNLIILEEHLKNKKEFDHNSNIRYRCRGKEGWIHTVCINGRWDPEVNCSMAQIQLCPPPPQIPNSHNMTTTLNYRDGEKVSVLCQENYLIQEGEEITCKDGRWQSIPLCVEKIPCSQPPQIEHGTINSSRSSQESYAHGTKLSYTCEGGFRISEENETTCYMGKWSSPPQCEGLPCKSPPEISHGVVAHMSDSYQYGEEVTYKCFEGFGIDGPAIAKCLGEKWSHPPSCIKTDCLSLPSFENAIPMGEKKDVYKAGEQVTYTCATYYKMDGASNVTCINSRWTGRPTCRDTSCVNPPTVQNAYIVSRQMSKYPSGERVRYQCRSPYEMFGDEEVMCLNGNWTEPPQCKDSTGKCGPPPPIDNGDITSFPLSVYAPASSVEYQCQNLYQLEGNKRITCRNGQWSEPPKCLHPCVISREIMENYNIALRWTAKQKLYSRTGESVEFVCKRGYRLSSRSHTLRTTCWDGKLEYPTCAKRGGSGHHHHHH
# B4: pCEP4-1NT7-15CT20 (other)
# chain: EDCNELPPRRNTEILTGSWSDQTYPEGTQAIYKCRPGYRSLGNVIMVCRKGEWVALNPLRKCQKRPCGHPGDTPFGTFTLTGGNVFEYGVKAVYTCNEGYQLLGEINYRECDTDGWTNDIPICEVVKCLPVTAPENGKIVSSAMEPDREYHFGQAVRFVCNSGYKIEGDEEMHCSDDGFWSKEKPKCVEISCKSPDVINGSPISQKIIYKENERFQYKCNMGYEYSERGDAVCTESGWRPLPSCEEKSCDNPYIPNGDYSPLRIKHRTGDEITYQCRNGFYPATRGNTAKCTSTGWIPAPRCTLKPCDYPDIKHGGLYHENMRRPYFPVAVGKYYSYYCDEHFETPSGSYWDHIHCTQDGWSPAVPCLRKCYFPYLENGYNQNYGRKFVQGKSIDVACHPGYALPKAQTTVTCMENGWSPTPRCIRVKTGASGCSQPPQIEHGTINSSRSSQESYAHGTKLSYTCEGGFRISEENETTCYMGKWSSPPQCEGLPCKSPPEISHGVVAHMSDSYQYGEEVTYKCFEGFGIDGPAIAKCLGEKWSHPPSCIKTDCLSLPSFENAIPMGEKKDVYKAGEQVTYTCATYYKMDGASNVTCINSRWTGRPTCRDTSCVNPPTVQNAYIVSRQMSKYPSGERVRYQCRSPYEMFGDEEVMCLNGNWTEPPQCKDSTGKCGPPPPIDNGDITSFPLSVYAPASSVEYQCQNLYQLEGNKRITCRNGQWSEPPKCLHPCVISREIMENYNIALRWTAKQKLYSRTGESVEFVCKRGYRLSSRSHTLRTTCWDGKLEYPTCAKRGGSGHHHHHH
# B5: pCEP4-1NT9-13CT20 (other)
# chain: EDCNELPPRRNTEILTGSWSDQTYPEGTQAIYKCRPGYRSLGNVIMVCRKGEWVALNPLRKCQKRPCGHPGDTPFGTFTLTGGNVFEYGVKAVYTCNEGYQLLGEINYRECDTDGWTNDIPICEVVKCLPVTAPENGKIVSSAMEPDREYHFGQAVRFVCNSGYKIEGDEEMHCSDDGFWSKEKPKCVEISCKSPDVINGSPISQKIIYKENERFQYKCNMGYEYSERGDAVCTESGWRPLPSCEEKSCDNPYIPNGDYSPLRIKHRTGDEITYQCRNGFYPATRGNTAKCTSTGWIPAPRCTLKPCDYPDIKHGGLYHENMRRPYFPVAVGKYYSYYCDEHFETPSGSYWDHIHCTQDGWSPAVPCLRKCYFPYLENGYNQNYGRKFVQGKSIDVACHPGYALPKAQTTVTCMENGWSPTPRCIRVKTCSKSSIDIENGFISESQYTYALKEKAKYQCKLGYVTADGETSGSITCGKDGWSAQPTCIKSCDIPVFMNARTKNDFTWFKLNDTLDYECHDGYESNTGSTTGSIVCGYNGWSDLPICYEREGASGCKSSNLIILEEHLKNKKEFDHNSNIRYRCRGKEGWIHTVCINGRWDPEVNCSMAQIQLCPPPPQIPNSHNMTTTLNYRDGEKVSVLCQENYLIQEGEEITCKDGRWQSIPLCVEKIPCSQPPQIEHGTINSSRSSQESYAHGTKLSYTCEGGFRISEENETTCYMGKWSSPPQCEGLPCKSPPEISHGVVAHMSDSYQYGEEVTYKCFEGFGIDGPAIAKCLGEKWSHPPSCIKTDCLSLPSFENAIPMGEKKDVYKAGEQVTYTCATYYKMDGASNVTCINSRWTGRPTCRDTSCVNPPTVQNAYIVSRQMSKYPSGERVRYQCRSPYEMFGDEEVMCLNGNWTEPPQCKDSTGKCGPPPPIDNGDITSFPLSVYAPASSVEYQCQNLYQLEGNKRITCRNGQWSEPPKCLHPCVISREIMENYNIALRWTAKQKLYSRTGESVEFVCKRGYRLSSRSHTLRTTCWDGKLEYPTCAKRGGSGHHHHHH
# B6: pCEP4-1NT13-14CT20 (other)
# chain: EDCNELPPRRNTEILTGSWSDQTYPEGTQAIYKCRPGYRSLGNVIMVCRKGEWVALNPLRKCQKRPCGHPGDTPFGTFTLTGGNVFEYGVKAVYTCNEGYQLLGEINYRECDTDGWTNDIPICEVVKCLPVTAPENGKIVSSAMEPDREYHFGQAVRFVCNSGYKIEGDEEMHCSDDGFWSKEKPKCVEISCKSPDVINGSPISQKIIYKENERFQYKCNMGYEYSERGDAVCTESGWRPLPSCEEKSCDNPYIPNGDYSPLRIKHRTGDEITYQCRNGFYPATRGNTAKCTSTGWIPAPRCTLKPCDYPDIKHGGLYHENMRRPYFPVAVGKYYSYYCDEHFETPSGSYWDHIHCTQDGWSPAVPCLRKCYFPYLENGYNQNHGRKFVQGKSIDVACHPGYALPKAQTTVTCMENGWSPTPRCIRVKTCSKSSIDIENGFISESQYTYALKEKAKYQCKLGYVTADGETSGSITCGKDGWSAQPTCIKSCDIPVFMNARTKNDFTWFKLNDTLDYECHDGYESNTGSTTGSIVCGYNGWSDLPICYERECELPKIDVHLVPDRKKDQYKVGEVLKFSCKPGFTIVGPNSVQCYHFGLSPDLPICKEQVQSCGPPPELLNGNVKEKTKEEYGHSEVVEYYCNPRFLMKGPNKIQCVDGEWTTLPVCIVEESTCGDIPELEHGWAQLSSPPYYYGDSVEFNCSESFTMIGHRSITCIHGVWTQLPQCVAIDKLKKCKSSNLIILEEHLKNKKEFDHNSNIRYRCRGKEGWIHTVCINGRWDPEVNCSMAQIQLGASGCPPPPQIPNSHNMTTTLNYRDGEKVSVLCQENYLIQEGEEITCKDGRWQSIPLCVEKIPCSQPPQIEHGTINSSRSSQESYAHGTKLSYTCEGGFRISEENETTCYMGKWSSPPQCEGLPCKSPPEISHGVVAHMSDSYQYGEEVTYKCFEGFGIDGPAIAKCLGEKWSHPPSCIKTDCLSLPSFENAIPMGEKKDVYKAGEQVTYTCATYYKMDGASNVTCINSRWTGRPTCRDTSCVNPPTVQNAYIVSRQMSKYPSGERVRYQCRSPYEMFGDEEVMCLNGNWTEPPQCKDSTGKCGPPPPIDNGDITSFPLSVYAPASSVEYQCQNLYQLEGNKRITCRNGQWSEPPKCLHPCVISREIMENYNIALRWTAKQKLYSRTGESVEFVCKRGYRLSSRSHTLRTTCWDGKLEYPTCAKRGGSGHHHHHH
# Molecular target: C3 convertase complex (UniProt P01024 23-1663; P00751 260-764)
# Assay: cell-based or functional assay
# Wherever C3 convertase activity % of the control is given: test concentration or dose not given here.
# C3 convertase complex, sequence (P01024 23-1663, chain 1 of 2): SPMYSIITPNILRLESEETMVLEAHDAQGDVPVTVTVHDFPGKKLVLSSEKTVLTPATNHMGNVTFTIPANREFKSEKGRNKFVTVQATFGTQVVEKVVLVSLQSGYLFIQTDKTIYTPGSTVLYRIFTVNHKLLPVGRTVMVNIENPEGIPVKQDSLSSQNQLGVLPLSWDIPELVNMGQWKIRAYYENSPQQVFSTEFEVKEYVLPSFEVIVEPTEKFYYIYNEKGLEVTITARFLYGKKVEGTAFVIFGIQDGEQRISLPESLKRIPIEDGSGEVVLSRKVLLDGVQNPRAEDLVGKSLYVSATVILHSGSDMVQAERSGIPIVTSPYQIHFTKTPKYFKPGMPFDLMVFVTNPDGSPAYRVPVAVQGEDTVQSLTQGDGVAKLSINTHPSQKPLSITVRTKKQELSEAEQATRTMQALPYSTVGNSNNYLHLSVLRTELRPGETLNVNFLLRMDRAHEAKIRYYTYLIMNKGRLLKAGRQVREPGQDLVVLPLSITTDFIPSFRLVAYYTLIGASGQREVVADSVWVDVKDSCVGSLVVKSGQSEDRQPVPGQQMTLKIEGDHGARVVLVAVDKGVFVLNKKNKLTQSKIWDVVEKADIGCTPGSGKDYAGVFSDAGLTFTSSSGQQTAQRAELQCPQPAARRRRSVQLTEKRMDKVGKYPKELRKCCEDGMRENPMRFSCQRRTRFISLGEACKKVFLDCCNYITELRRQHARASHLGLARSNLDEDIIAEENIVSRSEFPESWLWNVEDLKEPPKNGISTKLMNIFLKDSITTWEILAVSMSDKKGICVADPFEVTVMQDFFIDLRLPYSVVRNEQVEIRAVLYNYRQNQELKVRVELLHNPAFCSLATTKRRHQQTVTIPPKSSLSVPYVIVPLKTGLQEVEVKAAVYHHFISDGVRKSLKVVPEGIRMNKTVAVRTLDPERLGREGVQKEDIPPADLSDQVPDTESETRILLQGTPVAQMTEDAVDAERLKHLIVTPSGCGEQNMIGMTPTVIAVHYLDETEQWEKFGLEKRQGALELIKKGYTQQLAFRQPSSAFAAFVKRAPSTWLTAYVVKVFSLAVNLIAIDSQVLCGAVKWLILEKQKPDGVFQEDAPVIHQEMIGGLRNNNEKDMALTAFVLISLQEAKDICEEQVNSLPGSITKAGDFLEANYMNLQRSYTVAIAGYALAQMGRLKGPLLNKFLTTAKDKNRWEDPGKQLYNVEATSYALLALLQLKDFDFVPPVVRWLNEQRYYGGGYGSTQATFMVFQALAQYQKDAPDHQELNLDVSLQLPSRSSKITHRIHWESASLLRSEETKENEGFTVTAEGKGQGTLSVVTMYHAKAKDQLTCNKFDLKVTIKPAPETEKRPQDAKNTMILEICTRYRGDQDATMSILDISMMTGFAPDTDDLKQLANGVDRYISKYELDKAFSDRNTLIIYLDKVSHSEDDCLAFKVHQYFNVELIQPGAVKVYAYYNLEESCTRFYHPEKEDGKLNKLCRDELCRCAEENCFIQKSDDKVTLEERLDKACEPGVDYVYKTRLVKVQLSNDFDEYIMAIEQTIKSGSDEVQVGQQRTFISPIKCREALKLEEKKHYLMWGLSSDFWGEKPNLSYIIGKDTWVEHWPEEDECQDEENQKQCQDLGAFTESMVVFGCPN
# C3 convertase complex, sequence (P00751 260-764, chain 2 of 2): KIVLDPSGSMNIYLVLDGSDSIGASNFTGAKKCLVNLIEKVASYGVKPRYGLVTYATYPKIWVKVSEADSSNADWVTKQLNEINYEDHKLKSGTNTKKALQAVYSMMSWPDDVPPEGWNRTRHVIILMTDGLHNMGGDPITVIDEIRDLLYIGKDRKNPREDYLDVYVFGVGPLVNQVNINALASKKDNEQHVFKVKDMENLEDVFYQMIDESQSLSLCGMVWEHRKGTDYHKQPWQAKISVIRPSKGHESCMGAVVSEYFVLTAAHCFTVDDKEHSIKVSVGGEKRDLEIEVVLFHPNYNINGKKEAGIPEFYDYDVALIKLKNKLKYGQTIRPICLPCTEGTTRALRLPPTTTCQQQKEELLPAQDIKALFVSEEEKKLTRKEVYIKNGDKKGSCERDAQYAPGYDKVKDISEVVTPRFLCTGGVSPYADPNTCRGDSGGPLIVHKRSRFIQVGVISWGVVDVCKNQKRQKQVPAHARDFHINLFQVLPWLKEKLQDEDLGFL
C3 convertase activity % of the control,C3 convertase activity IC50 [µg/mL],Binder
49 % of the control,0.217,B1
58 % of the control,0.206,B2
42 % of the control,0.228,B3
56 % of the control,0.639,B4
56 % of the control,0.166,B5
45 % of the control,0.776,B6
